Experiment in all cases: SPR; biotinylated ADO or ADO mutant immobilised on a Biotin CAP chip (~2500-3000 RU), substrate peptide injected; Biacore T200, 4 °C; 20 mM HEPES pH 7.5, 500 mM NaCl, 10 mM DTT, 0.1% tween-20; 50 µL/minute; multi-cycle or single-cycle mode not given; each cell is one of three independent measurements
Holding throughout (conditions): both partners purified
(SPR reads the build-up and loss of mass on a sensor chip optically.)

Assay [1] addresses T1, ADO-I109A, N-terminally His-tagged and biotinylated (human, UniProt Q96SZ5 1-270, I109A, biotin (biotinylated during expression)).
T1 construct: 2-aminoethanethiol dioxygenase (ADO), human, UniProt Q96SZ5, full length, site-directed mutant; source: E. coli Rosetta2(DE3), purified (Ni-NTA, SEC); not shown: biotinylation tag (from the vector pQE80L-Navi), N-terminal, kept
T1 sequence (looked up): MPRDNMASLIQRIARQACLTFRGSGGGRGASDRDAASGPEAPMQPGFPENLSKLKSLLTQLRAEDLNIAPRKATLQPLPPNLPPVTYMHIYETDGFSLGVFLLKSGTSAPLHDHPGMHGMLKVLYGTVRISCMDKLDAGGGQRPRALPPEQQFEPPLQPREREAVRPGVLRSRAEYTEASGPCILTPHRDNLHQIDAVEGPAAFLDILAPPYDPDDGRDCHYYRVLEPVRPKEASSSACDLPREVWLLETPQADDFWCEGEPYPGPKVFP

The target in assay [2] is T2, ADO-Y87F, N-terminally His-tagged and biotinylated (human, UniProt Q96SZ5 1-270, Y87F, biotin (biotinylated during expression)).
T2 construct: 2-aminoethanethiol dioxygenase (ADO), human, UniProt Q96SZ5, full length, site-directed mutant; source: E. coli Rosetta2(DE3), purified (Ni-NTA, SEC); not shown: biotinylation tag (from the vector pQE80L-Navi), N-terminal, kept
T2 sequence (looked up): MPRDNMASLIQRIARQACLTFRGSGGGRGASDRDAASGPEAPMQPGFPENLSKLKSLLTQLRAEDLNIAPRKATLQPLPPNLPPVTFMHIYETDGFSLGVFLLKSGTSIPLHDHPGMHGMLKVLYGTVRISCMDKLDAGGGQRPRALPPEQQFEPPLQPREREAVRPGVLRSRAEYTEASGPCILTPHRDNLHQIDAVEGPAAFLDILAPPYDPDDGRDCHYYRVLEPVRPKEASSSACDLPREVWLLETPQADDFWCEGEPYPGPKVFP

For assay [3], the target named is T3, ADO-Y222A, N-terminally His-tagged and biotinylated (human, UniProt Q96SZ5 1-270, Y222A, biotin (biotinylated during expression)).
T3 construct: 2-aminoethanethiol dioxygenase (ADO), human, UniProt Q96SZ5, full length, site-directed mutant; source: E. coli Rosetta2(DE3), purified (Ni-NTA, SEC); not shown: biotinylation tag (from the vector pQE80L-Navi), N-terminal, kept
T3 sequence (looked up): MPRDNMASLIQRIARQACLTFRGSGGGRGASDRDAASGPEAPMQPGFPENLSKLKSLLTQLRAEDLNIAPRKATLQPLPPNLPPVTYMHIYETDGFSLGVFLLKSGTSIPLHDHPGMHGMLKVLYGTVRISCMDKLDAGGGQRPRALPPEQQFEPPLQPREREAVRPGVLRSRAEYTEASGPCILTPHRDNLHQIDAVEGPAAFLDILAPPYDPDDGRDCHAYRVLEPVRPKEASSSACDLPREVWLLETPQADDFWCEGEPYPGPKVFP

Assay [4] concerns the target T4, ADO-D206E, N-terminally His-tagged and biotinylated (human, UniProt Q96SZ5 1-270, D206E, biotin (biotinylated during expression)).
T4 construct: 2-aminoethanethiol dioxygenase (ADO), human, UniProt Q96SZ5, full length, site-directed mutant; source: E. coli Rosetta2(DE3), purified (Ni-NTA, SEC); not shown: biotinylation tag (from the vector pQE80L-Navi), N-terminal, kept
T4 sequence (looked up): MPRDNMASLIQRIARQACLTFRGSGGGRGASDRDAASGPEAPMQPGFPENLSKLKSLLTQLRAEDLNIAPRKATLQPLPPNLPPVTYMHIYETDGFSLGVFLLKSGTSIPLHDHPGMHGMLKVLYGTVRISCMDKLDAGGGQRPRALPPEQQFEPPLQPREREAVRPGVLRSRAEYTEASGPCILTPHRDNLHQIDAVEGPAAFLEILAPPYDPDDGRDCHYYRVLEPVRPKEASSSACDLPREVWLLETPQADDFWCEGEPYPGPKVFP

Assay [5] deals with T5, ADO-F256A, N-terminally His-tagged and biotinylated (human, UniProt Q96SZ5 1-270, F256A, biotin (biotinylated during expression)).
T5 construct: 2-aminoethanethiol dioxygenase (ADO), human, UniProt Q96SZ5, full length, site-directed mutant; source: E. coli Rosetta2(DE3), purified (Ni-NTA, SEC); not shown: biotinylation tag (from the vector pQE80L-Navi), N-terminal, kept
T5 sequence (looked up): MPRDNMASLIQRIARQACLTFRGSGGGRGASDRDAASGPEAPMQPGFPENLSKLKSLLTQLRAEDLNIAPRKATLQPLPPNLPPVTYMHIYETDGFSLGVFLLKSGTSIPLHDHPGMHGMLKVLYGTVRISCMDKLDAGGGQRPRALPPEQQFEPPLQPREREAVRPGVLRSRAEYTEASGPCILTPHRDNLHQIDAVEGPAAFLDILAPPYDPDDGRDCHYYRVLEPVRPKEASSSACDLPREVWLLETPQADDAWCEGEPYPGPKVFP

Several values for one entry are separate records, joined by “and”; a condition that tells them apart may be missing. Identical values can stand only once.

B1: RGS5(2-15), synthetic peptide corresponding to the methionine excised N-terminus of RGS5, residues 2 to 15 (peptide, UniProt O15539 2-15, looked up)
peptide: CKGLAALPHSCLER
notes: regulator of G-protein signalling 5 (RGS5), residues 2 to 15 (N-terminal Cys exposed); UniProt O15539 is printed for the full-length human protein; also called 14-mer RGS5; source: synthetic peptide
In general, Kd refers to the constant that tells how readily two partners part at equilibrium. With B1, the equilibrium dissociation constant (Kd) in assay [1] is 1120 nM and 1240 nM and 1430 nM; in assay [2] it was 339 nM (2×) and 336 nM; in assay [3], 4420 nM and 4800 nM and 4780 nM; in assay [4], 1190 nM and 997 nM and 1060 nM; in assay [5] it was 717 nM and 753 nM and 714 nM.
